± gives the standard deviation of the averaged measurements.
What was measured:
MCF7 = assay: percentage of EdU-negative (G0-arrested) nuclei per well, 72 h; higher = more G0 arrest; conditions: reference: sequence is the full UniProt precursor, the tested protein was the secreted form or ectodomain
hTERT-HMEC = assay: as above; conditions: reference: sequence is the full UniProt precursor, the tested protein was the secreted form or ectodomain
[1] = protein concentration 0.0257143 µM
[2] = protein concentration 0.257143 µM
[3] = protein concentration 0.0225 µM
[4] = protein concentration 0.0357143 µM
[5] = protein concentration 0.357143 µM
[6] = protein concentration 0.023905 µM
[7] = protein concentration 0.23905 µM
[8] = protein concentration 0.0128525 µM
[9] = protein concentration 0.128525 µM
[10] = protein concentration 0.00828571 µM
[11] = protein concentration 0.0828571 µM
[12] = protein concentration 0.03125 µM
[13] = protein concentration 0.3125 µM
[14] = protein concentration 0.0277143 µM
[15] = protein concentration 0.277143 µM
[16] = protein concentration 0.00669 µM
[17] = protein concentration 0.0669 µM
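Also: secreted proteins added to cultured cells, EdU pulse at the end, nuclei found by Hoechst imaging, EdU status from nuclear versus surrounding ring intensity ratio, PBS as neutral control.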

MAPPSVPLVLLLVLLLSLAETPASAPAHRGRGGWTLNSAGYLLGPVLHLPQMGDQDGKRETALEILDLWKAIDGLPYSHPPQPSKRNVMETFAKPEIGDLGMLSMKIPKEEDVLKS [Q9UBC7]
percentage of EdU-negative (MCF7; [1]): 25.7 ± 2.2% | percentage of EdU-negative (MCF7; [2]): 27.5 ± 3% | percentage of EdU-negative (hTERT-HMEC; [1]): 5.31 ± 1.9% | percentage of EdU-negative (hTERT-HMEC; [2]): 6.11 ± 0.2%

MAPRARRRRPLFALLLLCALLARLQVALQIAPPCTSEKHYEHLGRCCNKCEPGKYMSSKCTTTSDSVCLPCGPDEYLDSWNEEDKCLLHKVCDTGKALVAVVAGNSTTPRRCACTAGYHWSQDCECCRRNTECAPGLGAQHPLQLNKDTVCKPCLAGYFSDAFSSTDKCRPWTNCTFLGKRVEHHGTEKSDAVCSSSLPARKPPNEPHVYLPGLIILLLFASVALVAAIIFGVCYRKKGKALTANLWHWINEACGRLSGDKESSGDSCVSTHTANFGQQGACEGVLLLTLEEKTFPEDMCYPDQGGVCQGTCVGGGPYAQGEDARMLSLVSKTEIEEDSFRQMPTEDEYMDRPSQPTDQLLFLTEPGSKSTPPFSEPLEVGENDSLSQCFTGTQSTVGSESCNCTEPLCRTDWTPMSSENYLQKEVDSGHCPHWAASPSPNWADVCTGCRNPPGEDCEPLVGSPKRGPLPQCAYGMGLPPEEEASRTEARDQPEDGADGRLPSSARAGAGSGSSPGGQSPASGNVTGNSNSTFISSGQVMNFKGDIIVVYVSQTSQEGAAAAAEPMGRPVQEETLARRDSFAGNGPRFPDPCGGPEGLREPEKASRPVQEQGGAKA [Q9Y6Q6]
percentage of EdU-negative (MCF7; [3]): 24 ± 1.9% | percentage of EdU-negative (MCF7; protein concentration 0.225 µM): 25.6 ± 1.8% | percentage of EdU-negative (hTERT-HMEC; [3]): 5.19 ± 0.68% | percentage of EdU-negative (hTERT-HMEC; protein concentration 0.225 µM): 5.83 ± 0.025%

MAPRGCIVAVFAIFCISRLLCSHGAPVAPMTPYLMLCQPHKRCGDKFYDPLQHCCYDDAVVPLARTQTCGNCTFRVCFEQCCPWTFMVKLINQNCDSARTSDDRLCRSVS [Q6UW32]
percentage of EdU-negative (MCF7; [4]): 24.2 ± 1.9% | percentage of EdU-negative (MCF7; [5]): 25.5 ± 0.59% | percentage of EdU-negative (hTERT-HMEC; [4]): 4.73 ± 0.98% | percentage of EdU-negative (hTERT-HMEC; [5]): 5.65 ± 1.1%

MAPRRARGCRTLGLPALLLLLLLRPPATRGITCPPPMSVEHADIWVKSYSLYSRERYICNSGFKRKAGTSSLTECVLNKATNVAHWTTPSLKCIRDPALVHQRPAPPSTVTTAGVTPQPESLSPSGKEPAASSPSSNNTAATTAAIVPGSQLMPSKSPSTGTTEISSHESSHGTPSQTTAKNWELTASASHQPPGVYPQGHSDTTVAISTSTVLLCGLSAVSLLACYLKSRQTPPLASVEMEAMEALPVTWGTSSRDEDLENCSHHL
percentage of EdU-negative (MCF7; [6]): 27.1 ± 0.76% | percentage of EdU-negative (MCF7; [7]): 25.6 ± 2.6% | percentage of EdU-negative (hTERT-HMEC; [6]): 5.18 ± 0.25% | percentage of EdU-negative (hTERT-HMEC; [7]): 6.6 ± 0.68%

MAPRRVRSFLRGLPALLLLLLFLGPWPAASHGGKYSREKNQPKPSPKRESGEEFRMEKLNQLWEKAQRLHLPPVRLAELHADLKIQERDELAWKKLKLDGLDEDGEKEARLIRNLNVILAKYGLDGKKDARQVTSNSLSGTQEDGLDDPRLEKLWHKAKTSGKFSGEELDKLWREFLHHKEKVHEYNVLLETLSRTEEIHENVISPSDLSDIKGSVLHSRHTELKEKLRSINQGLDRLRRVSHQGYSTEAEFEEPRVIDLWDLAQSANLTDKELEAFREELKHFEAKIEKHNHYQKQLEIAHEKLRHAESVGDGERVSRSREKHALLEGRTKELGYTVKKHLQDLSGRISRARHNEL
percentage of EdU-negative (MCF7; [8]): 24.3 ± 0.53% | percentage of EdU-negative (MCF7; [9]): 26.4 ± 1.4% | percentage of EdU-negative (hTERT-HMEC; [8]): 4.97 ± 0.51% | percentage of EdU-negative (hTERT-HMEC; [9]): 6.45 ± 0.82%

MAPRTLWSCYLCCLLTAAAGAASYPPRGFSLYTGSSGALSPGGPQAQIAPRPASRHRNWCAYVVTRTVSCVLEDGVETYVKYQPCAWGQPQCPQSIMYRRFLRPRYRVAYKTVTDMEWRCCQGYGGDDCAESPAPALGPASSTPRPLARPARPNLSGSSAGSPLSGLGGEGPGESEKVQQLEEQVQSLTKELQGLRGVLQGLSGRLAEDVQRAVETAFNGRQQPADAAARPGVHETLNEIQHQLQLLDTRVSTHDQELGHLNNHHGGSSSSGGSRAPAPASAPPGPSEELLRQLEQRLQESCSVCLAGLDGFRRQQQEDRERLRAMEKLLASVEERQRHLAGLAVGRRPPQECCSPELGRRLAELERRLDVVAGSVTVLSGRRGTELGGAAGQGGHPPGYTSLASRLSRLEDRFNSTLGPSEEQEESWPGAPGGLSHWLPAARGRLEQLGGLLANVSGELGGRLDLLEEQVAGAMQACGQLCSGAPGEQDSQVSEILSALERRVLDSEGQLRLVGSGLHTVEAAGEARQATLEGLQEVVGRLQDRVDAQDETAAEFTLRLNLTAARLGQLEGLLQAHGDEGCGACGGVQEELGRLRDGVERCSCPLLPPRGPGAGPGVGGPSRGPLDGFSVFGGSSGSALQALQGELSEVILSFSSLNDSLNELQTTVEGQGADLADLGATKDRIISEINRLQQEATEHATESEERFRGLEEGQAQAGQCPSLEGRLGRLEGVCERLDTVAGGLQGLREGLSRHVAGLWAGLRETNTTSQMQAALLEKLVGGQAGLGRRLGALNSSLQLLEDRLHQLSLKDLTGPAGEAGPPGPPGLQGPPGPAGPPGSPGKDGQEGPIGPPGPQGEQGVEGAPAAPVPQVAFSAALSLPRSEPGTVPFDRVLLNDGGYYDPETGVFTAPLAGRYLLSAVLTGHRHEKVEAVLSRSNQGVARVDSGGYEPEGLENKPVAESQPSPGTLGVFSLILPLQAGDTVCVDLVMGQLAHSEEPLTIFSGALLYGDPELEHA [A0A0C4DFX3]
percentage of EdU-negative (MCF7; [10]): 26.3 ± 1.3% | percentage of EdU-negative (MCF7; [11]): 30.4 ± 3.6% | percentage of EdU-negative (hTERT-HMEC; [10]): 4.9 ± 0.43% | percentage of EdU-negative (hTERT-HMEC; [11]): 4.36 ± 0.72%

MAPSSPRPALPALLVLLGALFPGPGNAQTSVSPSKVILPRGGSVLVTCSTSCDQPKLLGIETPLPKKELLLPGNNRKVYELSNVQEDSQPMCYSNCPDGQSTAKTFLTVYWTPERVELAPLPSWQPVGKNLTLRCQVEGGAPRANLTVVLLRGEKELKREPAVGEPAEVTTTVLVRRDHHGANFSCRTELDLRPQGLELFENTSAPYQLQTFVLPATPPQLVSPRVLEVDTQGTVVCSLDGLFPVSEAQVHLALGDQRLNPTVTYGNDSFSAKASVSVTAEDEGTQRLTCAVILGNQSQETLQTVTIYSFPAPNVILTKPEVSEGTEVTVKCEAHPRAKVTLNGVPAQPLGPRAQLLLKATPEDNGRSFSCSATLEVAGQLIHKNQTRELRVLYGPRLDERDCPGNWTWPENSQQTPMCQAWGNPLPELKCLKDGTFPLPIGESVTVTRDLEGTYLCRARSTQGEVTRKVTVNVLSPRYEIVIITVVAAAVIMGTAGLSTYLYNRQRKIKKYRLQQAQKGTPMKPNTQATPP
percentage of EdU-negative (MCF7; [12]): 24.7 ± 1.5% | percentage of EdU-negative (MCF7; [13]): 24.2 ± 3.4% | percentage of EdU-negative (hTERT-HMEC; [12]): 5 ± 0.26% | percentage of EdU-negative (hTERT-HMEC; [13]): 5.68 ± 0.88%

MAPVAVWAALAVGLELWAAAHALPAQVAFTPYAPEPGSTCRLREYYDQTAQMCCSKCSPGQHAKVFCTKTSDTVCDSCEDSTYTQLWNWVPECLSCGSRCSSDQVETQACTREQNRICTCRPGWYCALSKQEGCRLCAPLRKCRPGFGVARPGTETSDVVCKPCAPGTFSNTTSSTDICRPHQICNVVAIPGNASMDAVCTSTSPTRSMAPGAVHLPQPVSTRSQHTQPTPEPSTAPSTSFLLPMGPSPPAEGSTGDFALPVGLIVGVTALGLLIIGVVNCVIMTQVKKKPLCLQREAKVPHLPADKARGTQGPEQQHLLITAPSSSSSSLESSASALDRRAPTRNQPQAPGVEASGAGEARASTGSSDSSPGGHGTQVNVTCIVNVCSSSDHSSQCSSQASSTMGDTDSSPSESPKDEQVPFSKEECAFRSQLETPETLLGSTEEKPLPLGVPDAGMKPS
percentage of EdU-negative (MCF7; [14]): 22.2 ± 1.9% | percentage of EdU-negative (MCF7; [15]): 23.6 ± 1.1% | percentage of EdU-negative (hTERT-HMEC; [14]): 5.56 ± 0.29% | percentage of EdU-negative (hTERT-HMEC; [15]): 6.09 ± 1.2%

MAQHGAMGAFRALCGLALLCALSLGQRPTGGPGCGPGRLLLGTGTDARCCRVHTTRCCRDYPGEECCSEWDCMCVQPEFHCGDPCCTTCRHHPCPPGQGVQSQGKFSFGFQCIDCASGTFSGGHEGHCKPWTDCTQFGFLTVFPGNKTHNAVCVPGSPPAEPLGWLTVVLLAVAACVLLLTSAQLGLHIWQLRSQCMWPRETQLLLEVPPSTEDARSCQFPEEERGERSAEEKGRLGDLWV [Q9Y5U5]
percentage of EdU-negative (MCF7; [16]): 24.9 ± 1.6% | percentage of EdU-negative (MCF7; [17]): 23.9 ± 0.75% | percentage of EdU-negative (hTERT-HMEC; [16]): 5.37 ± 0.9% | percentage of EdU-negative (hTERT-HMEC; [17]): 6.01 ± 1.5%

MAQHHLWILLLCLQTWPEAAGKDSEIFTVNGILGESVTFPVNIQEPRQVKIIAWTSKTSVAYVTPGDSETAPVVTVTHRNYYERIHALGPNYNLVISDLRMEDAGDYKADINTQADPYTTTKRYNLQIYRRLGKPKITQSLMASVNSTCNVTLTCSVEKEEKNVTYNWSPLGEEGNVLQIFQTPEDQELTYTCTAQNPVSNNSDSISARQLCADIAMGFRTHHTGLLSVLAMFFLLVLILSSVFLFRLFKRRQGRIFPEGSCLNTFTKNPYAASKKTIYTYIMASRNTQPAESRIYDEILQSKVLPSKEEPVNTVYSEVQFADKMGKASTQDSKPPGTSSYEIVI [Q9UIB8]
percentage of EdU-negative (MCF7; [3]): 27.3 ± 3% | percentage of EdU-negative (MCF7; protein concentration 0.225 µM): 26.8 ± 1.5% | percentage of EdU-negative (hTERT-HMEC; [3]): 4.54 ± 0.35% | percentage of EdU-negative (hTERT-HMEC; protein concentration 0.225 µM): 5.92 ± 0.51%

MAQLCGLRRSRAFLALLGSLLLSGVLAADRERSIHDFCLVSKVVGRCRASMPRWWYNVTDGSCQLFVYGGCDGNSNNYLTKEECLKKCATVTENATGDLATSRNAADSSVPSAPRRQDSEDHSSDMFNYEEYCTANAVTGPCRASFPRWYFDVERNSCNNFIYGGCRGNKNSYRSEEACMLRCFRQQENPPLPLGSKVVVLAGLFVMVLILFLGASMVYLIRVARRNQERALRTVWSSGDDKEQLVKNTYVL
percentage of EdU-negative (MCF7; [3]): 24.2 ± 2% | percentage of EdU-negative (MCF7; protein concentration 0.225 µM): 25.4 ± 0.69% | percentage of EdU-negative (hTERT-HMEC; [3]): 4.91 ± 0.26% | percentage of EdU-negative (hTERT-HMEC; protein concentration 0.225 µM): 5.37 ± 0.98%

— the supplement of paper PMC11316812
